Patent publication US20180118786A1 (published 2018)
Starred links: 1 amine or outer side, 2 acyl side, 3 side chain; linkers in the order of their positions; H or OH if unused. Positions of bridges follow the written chain, without caps; N, C: chain ends. Non-standard residues stand in square brackets, D forms with d. No end group written: not given here. TATA = O=C(CC[*:1])N1CN(C(=O)CC[*:2])CN(C(=O)CC[*:3])C1; Phe(4-guanidino) = N=C(N)Nc1ccc(C[C@H](N)C(=O)O)cc1; hArg = N=C(N)NCCCC[C@H](N)C(=O)O; Agb = N=C(N)NCC[C@H](N)C(=O)O; hLys = NCCCCC[C@H](N)C(=O)O

T1: human β-FXIIa (HFXIIAB; Molecular Innovations) (human, UniProt P00748 354-362; P00748 373-615)
T1 chain 1: NGPLSCGQR
T1 chain 2: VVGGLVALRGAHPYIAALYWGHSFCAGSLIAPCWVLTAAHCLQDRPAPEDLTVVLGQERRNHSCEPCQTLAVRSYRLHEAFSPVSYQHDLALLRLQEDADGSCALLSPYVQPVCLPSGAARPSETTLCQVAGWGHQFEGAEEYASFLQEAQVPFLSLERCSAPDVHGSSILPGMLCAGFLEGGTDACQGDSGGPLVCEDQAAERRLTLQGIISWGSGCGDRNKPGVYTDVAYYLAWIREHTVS

B1: peptide 7 (peptide 2, Phe3 to valine) (peptide)
peptide: RCVRLPCRQLRCRW-NH2
modifications: linker 2-7-12 via TATA; N-terminus assumed
SMILES: CC(C)C[C@@H]1NC(=O)[C@H](CCC(N)=O)NC(=O)[C@H](CCCNC(=N)N)NC(=O)[C@@H]2CSCCC(=O)N3CN(CN(C3)C(=O)CCSC[C@H](NC(=O)[C@@H](N)CCCNC(=N)N)C(=O)N[C@@H](C(C)C)C(=O)N[C@@H](CCCNC(=N)N)C(=O)N[C@@H](CC(C)C)C(=O)N3CCC[C@H]3C(=O)N2)C(=O)CCSC[C@@H](C(=O)N[C@@H](CCCNC(=N)N)C(=O)N[C@@H](Cc2c[nH]c3ccccc23)C(N)=O)NC(=O)[C@H](CCCNC(=N)N)NC1=O
B2: peptide 6 (peptide 2, Phe3 to alanine) (peptide)
peptide: RCARLPCRQLRCRW-NH2
modifications: linker 2-7-12 via TATA; N-terminus assumed
SMILES: CC(C)C[C@@H]1NC(=O)[C@H](CCC(N)=O)NC(=O)[C@H](CCCNC(=N)N)NC(=O)[C@@H]2CSCCC(=O)N3CN(CN(C3)C(=O)CCSC[C@H](NC(=O)[C@@H](N)CCCNC(=N)N)C(=O)N[C@@H](C)C(=O)N[C@@H](CCCNC(=N)N)C(=O)N[C@@H](CC(C)C)C(=O)N3CCC[C@H]3C(=O)N2)C(=O)CCSC[C@@H](C(=O)N[C@@H](CCCNC(=N)N)C(=O)N[C@@H](Cc2c[nH]c3ccccc23)C(N)=O)NC(=O)[C@H](CCCNC(=N)N)NC1=O
B3: peptide 8 (peptide 2, Phe3 to isoleucine) (peptide)
peptide: RCIRLPCRQLRCRW-NH2
modifications: linker 2-7-12 via TATA; N-terminus assumed
SMILES: CC[C@H](C)[C@@H]1NC(=O)[C@@H](NC(=O)[C@@H](N)CCCNC(=N)N)CSCCC(=O)N2CN3CN(C2)C(=O)CCSC[C@H](NC(=O)[C@@H]2CCCN2C(=O)[C@H](CC(C)C)NC(=O)[C@H](CCCNC(=N)N)NC1=O)C(=O)N[C@@H](CCCNC(=N)N)C(=O)N[C@@H](CCC(N)=O)C(=O)N[C@@H](CC(C)C)C(=O)N[C@@H](CCCNC(=N)N)C(=O)N[C@H](C(=O)N[C@@H](CCCNC(=N)N)C(=O)N[C@@H](Cc1c[nH]c2ccccc12)C(N)=O)CSCCC3=O
B4: peptide 64 (FXII618, Arg1 to isoleucine) (peptide)
peptide: ICFRLPCRQLRCR-NH2
modifications: linker 2-7-12 via TATA; N-terminus assumed
SMILES: CC[C@H](C)[C@H](N)C(=O)N[C@H]1CSCCC(=O)N2CN3CN(C2)C(=O)CCSC[C@H](NC(=O)[C@@H]2CCCN2C(=O)[C@H](CC(C)C)NC(=O)[C@H](CCCNC(=N)N)NC(=O)[C@H](Cc2ccccc2)NC1=O)C(=O)N[C@@H](CCCNC(=N)N)C(=O)N[C@@H](CCC(N)=O)C(=O)N[C@@H](CC(C)C)C(=O)N[C@@H](CCCNC(=N)N)C(=O)N[C@H](C(=O)N[C@@H](CCCNC(=N)N)C(N)=O)CSCCC3=O
B5: peptide 65 (FXII618, Arg1 to valine) (peptide)
peptide: VCFRLPCRQLRCR-NH2
modifications: linker 2-7-12 via TATA; N-terminus assumed
SMILES: CC(C)C[C@@H]1NC(=O)[C@H](CCC(N)=O)NC(=O)[C@H](CCCNC(=N)N)NC(=O)[C@@H]2CSCCC(=O)N3CN(CN(C3)C(=O)CCSC[C@H](NC(=O)[C@@H](N)C(C)C)C(=O)N[C@@H](Cc3ccccc3)C(=O)N[C@@H](CCCNC(=N)N)C(=O)N[C@@H](CC(C)C)C(=O)N3CCC[C@H]3C(=O)N2)C(=O)CCSC[C@@H](C(=O)N[C@@H](CCCNC(=N)N)C(N)=O)NC(=O)[C@H](CCCNC(=N)N)NC1=O
B6: FXII618 variant with R in position 1 replaced by homolysine (peptide)
peptide: [hLys]CFRLPCRQLRCR-NH2
modifications: linker 2-7-12 via TATA; N-terminus assumed
SMILES: CC(C)C[C@@H]1NC(=O)[C@H](CCC(N)=O)NC(=O)[C@H](CCCNC(=N)N)NC(=O)[C@@H]2CSCCC(=O)N3CN(CN(C3)C(=O)CCSC[C@H](NC(=O)[C@@H](N)CCCCCN)C(=O)N[C@@H](Cc3ccccc3)C(=O)N[C@@H](CCCNC(=N)N)C(=O)N[C@@H](CC(C)C)C(=O)N3CCC[C@H]3C(=O)N2)C(=O)CCSC[C@@H](C(=O)N[C@@H](CCCNC(=N)N)C(N)=O)NC(=O)[C@H](CCCNC(=N)N)NC1=O
B7: peptide 66 (FXII618, Arg1 to alanine) (peptide)
peptide: ACFRLPCRQLRCR-NH2
modifications: linker 2-7-12 via TATA; N-terminus assumed
SMILES: CC(C)C[C@@H]1NC(=O)[C@H](CCC(N)=O)NC(=O)[C@H](CCCNC(=N)N)NC(=O)[C@@H]2CSCCC(=O)N3CN(CN(C3)C(=O)CCSC[C@@H](C(=O)N[C@@H](CCCNC(=N)N)C(N)=O)NC(=O)[C@H](CCCNC(=N)N)NC1=O)C(=O)CCSC[C@H](NC(=O)[C@H](C)N)C(=O)N[C@@H](Cc1ccccc1)C(=O)N[C@@H](CCCNC(=N)N)C(=O)N[C@@H](CC(C)C)C(=O)N1CCC[C@H]1C(=O)N2
B8: Methionine (27), Leu10 (peptide)
chain: RCFRLPCRQMRCR
B9: Alanine (30), Leu10 (peptide)
chain: RCFRLPCRQARCR
B10: Valine (25), Leu10 (peptide)
chain: RCFRLPCRQVRCR
B11: peptide 26 (peptide 2, Leu10 to isoleucine) (peptide)
peptide: RCFRLPCRQIRCRW-NH2
modifications: linker 2-7-12 via TATA; N-terminus assumed
SMILES: CC[C@H](C)[C@@H]1NC(=O)[C@H](CCC(N)=O)NC(=O)[C@H](CCCNC(=N)N)NC(=O)[C@@H]2CSCCC(=O)N3CN(CN(C3)C(=O)CCSC[C@H](NC(=O)[C@@H](N)CCCNC(=N)N)C(=O)N[C@@H](Cc3ccccc3)C(=O)N[C@@H](CCCNC(=N)N)C(=O)N[C@@H](CC(C)C)C(=O)N3CCC[C@H]3C(=O)N2)C(=O)CCSC[C@@H](C(=O)N[C@@H](CCCNC(=N)N)C(=O)N[C@@H](Cc2c[nH]c3ccccc23)C(N)=O)NC(=O)[C@H](CCCNC(=N)N)NC1=O
B12: peptide 39 (peptide 2, Arg4 to homoarginine) (peptide)
peptide: RCF[hArg]LPCRQLRCRW-NH2
modifications: linker 2-7-12 via TATA
B13: peptide 41 (peptide 2, Arg4 to 4-guanidinophenylalanine) (peptide)
peptide: H-RCF[Phe(4-guanidino)]LPCRQLRCRW-NH2
modifications: linker 2-7-12 via TATA
SMILES: CC(C)C[C@@H]1NC(=O)[C@H](CCC(N)=O)NC(=O)[C@H](CCCNC(=N)N)NC(=O)[C@@H]2CSCCC(=O)N3CN(CN(C3)C(=O)CCSC[C@H](NC(=O)[C@@H](N)CCCNC(=N)N)C(=O)N[C@@H](Cc3ccccc3)C(=O)N[C@@H](Cc3ccc(NC(=N)N)cc3)C(=O)N[C@@H](CC(C)C)C(=O)N3CCC[C@H]3C(=O)N2)C(=O)CCSC[C@@H](C(=O)N[C@@H](CCCNC(=N)N)C(=O)N[C@@H](Cc2c[nH]c3ccccc23)C(N)=O)NC(=O)[C@H](CCCNC(=N)N)NC1=O
B14: peptide 38 (peptide 2, Arg4 to homolysine) (peptide)
peptide: RCF[hLys]LPCRQLRCRW-NH2
modifications: linker 2-7-12 via TATA
B15: peptide 40 (peptide 2, Arg4 to norarginine) (peptide)
peptide: H-RCF[Agb]LPCRQLRCRW-NH2
modifications: linker 2-7-12 via TATA

Biological target: T1, human β-FXIIa (HFXIIAB; Molecular …)
Test: enzyme inhibition
B1 showed a Ki of 413 nM. B2 gave a Ki of 336 nM. B3 showed a Ki of 2010 nM.

Biological target: T1, human β-FXIIa (HFXIIAB; Molecular …)
Test: enzyme inhibition
Remark: another data set of the same source
B4 showed a Ki of 231 nM. B5 was tested, and the Ki was 287 nM. B6 was tested, and the Ki was 18.5 nM. In the case of B7, the Ki is reported as 177 nM.

Biological target: T1, human β-FXIIa (HFXIIAB; Molecular …)
Test: enzyme inhibition
Remark: another data set of the same source
For B8, the Ki was 364 nM. B9 showed a Ki of 2660 nM. For B10, the Ki was 830 nM. For B11, the Ki was 199 nM.

Biological target: T1, human β-FXIIa (HFXIIAB; Molecular …)
Test: enzyme inhibition
Remark: another data set of the same source
In the case of B12, the Ki is reported as 181 nM. Binder B13 has a Ki of 976 nM. Work on B14 yielded a Ki of 131 nM. Binder B15 has a Ki of 397 nM.
